Data from patent US8530168B2, “Fusion protein comprising a Caspase domain and a nuclear hormone receptor binding domain and methods and uses thereof” (Helmholtz Zentrum Munich Deutsches Forschungszentrum fuer …, priority 2007, dated 2013).

Columns and labels:
Format in all cases: cell-based, mouse
MEF5/N9 cells [1] = assay: MTT cytotoxicity assay of stably transfected MEF5/N9 clones; settings: 10^−8 M 4-OH-tamoxifen, 48 h
Method: (§1) To generate stably transfected MEF5/N9 cells, 2·10^6 cells were coelectroporated with 32 μg ER(T2) fusion plasmid DNA linearised with ScaI and 8 μg pPgk-hygro-pA plasmid DNA linearised with XhoI and plated into two 96-well plates. The cells were grown in DMEM medium (Invitrogen) supplemented with 2 mM Glutamine and 10% fetal calf serum at 37° C., 5% CO2 in humid atmosphere, and passaged upon trypsinization. Two days after transfection the medium was supplemented with 250 U/ml of hygromycin (Calbiochem) for the selection of stable integrants. Upon the growth of resistant colonies these were individually expanded in the presence of hygromycin.
To quantify 4-OH-tamoxifen-inducible cell death, we applied the colorimetric MTT assay (Mossman, J. Immunol. Methods, 65, 55 (1983)) allowing the quantification of cell survival. Cells (4·10^3) were plated on 96-well plates. The assay was carried out in three replicas for each sample treated with and without 4-OH-tamoxifen. After 12 h, medium was replaced either with fresh medium or with medium supplemented with 10^−8 M 4-OH-tamoxifen. Following 48 h of 4-OH-tamoxifen treatment, sterile filtered MTT reagent in PBS (Sigma) was added at the concentration of 0.5 mg/ml. Incubation occurred for 4 hours at 37° C. With ongoing reaction time, dark violet MTT formazan crystals appeared on the bottom of the wells containing living cells. The crystals were dissolved in 150 μl 0.04 N HCl/isopropanol to give a homogeneous blue solution suitable for absorbance measurement at a wavelength of 570 nm on the Synergy™ HT Multi-Detection Microplate Reader (BioTek).

MEF5/N9 cells [2] = assay: Visible phenotypic changes / viability of stably transfected MEF5/N9 clones on 4-OH-tamoxifen treatment; settings: 10^−8 M 4-OH-tamoxifen, 24 h
Method: as §1
To examine 4-OH-tamoxifen-dependent cell death, 1·10^5 MEF5/N9 cells expressing ER(T2) fusion proteins were plated into each well of a six-well plate. The following day, for each sample the medium in two of four individual wells were replaced with medium supplemented with 10^−8 M 4-hydroxy-tamoxifen. 24 hours after induction with 4-OH-tamoxifen, cells were photographed through a Leica DMI6000B fluorescence microscope with phase contrast either at 10-fold or 20-fold magnification.
Since the responsiveness of the clones, transfected with the same construct, to 4-OH-tamoxifen differed only slightly from each other, only the results obtained from one clone for each construct are shown in the figure.

MEF5/N9 cells [3] = assay: TUNEL in situ cell death detection assay of MEF5/N9 clones; settings: 10^−8 M 4-OH-tamoxifen; for TUNEL result / apoptotic morphology (in words): 3 or 7 hours; for incubation time with 4-OH-tamoxifen at which TUNEL positive cells were detected: fixation at 2, 3, 5 and 7 hours
Source text: TUNEL, or terminal deoxynucleotidyl transferase-mediated dUTP nick end-labeling, is acknowledged as a method of choice in the rapid detection of DNA fragmentation that results from apoptotic signaling cascades (Gavrieli et al., J. Cell Biol., 119(3), 493-501 (1992)). Cleavage of genomic DNA during apoptosis may yield double-stranded, low molecular weight DNA fragments as well as single strand breaks (“nicks”) in high molecular weight DNA. Those DNA strand breaks can be identified by terminal deoxynucleotidyl transferase (TdT), which catalyzes polymerization of labeled nucleotides to free 3′-OH DNA ends in a template-independent manner. To detect 4-OH-tamoxifen induced cell death in MEF5/N9 cells, we applied the In Situ Cell Death Detection Kit, POD by Roche according to the manufacturer's instructions. Incorporated fluorescein is detected by anti-fluorescein antibody, conjugated with horse-radish peroxidase (POD). After substrate reaction, stained cells can be analyzed under light microscopy.
Two days prior to the TUNEL staining, round glass cover slips ([…]) were sterilized with 70% EtOH, dried under laminar flow and coated with Poly-L-lysine at a concentration of 50 μg/ml over night at 37° C., which allows a better attachment of cells on the cover slips. The following day, the cover slips were rinsed 3 times with PBS and dried for 1 hour under laminar flow. 2.5·10^5 cells were seeded onto cover slips in a 6-well plate. On the test day, medium was replaced either by fresh medium or medium supplemented with 10^−8 M 4-OH-tamoxifen. […] After fixation, cells were rinsed three times in PBS, covered with 100% methanol and incubated for 10 min or over night in a freezer and rinsed in PBS. Endogenous peroxidase activity was blocked by immersing cover slips for 10 min in 3% H2O2 in methanol prior to cell permeabilization. Cells were subsequently rinsed with PBS and incubated in permeabilization solution (0.1% Triton X-100 in freshly prepared 0.1% sodium citrate) for 2 min on ice. To generate a positive control, DNA strand breaks were induced by incubating permeabilized cells with 2 U/ml DNase I in 50 mM Tris-HCl, pH 7.5, 10 mM MgCl2, 1 mg/ml BSA for 10 min at room temperature, prior to labeling procedure. Cover slips were rinsed twice with PBS before incubating each sample with 25 μl TUNEL reaction mixture for 60 min at 37° C. in a humidified atmosphere in the dark. To avoid evaporative loss, cover slips were covered with parafilm. For a negative control 25 μl of Label solution without enzyme solution were added. Following labeling, cover slips were rinsed 3 times with PBS for 10 min each. To convert the fluorescence signal to a chromogenic signal, 25 μl of the POD solution were added on each sample which was covered with parafilm and incubated in a humidified chamber for 30 min at 37° C. Subsequently, cover slips were rinsed 3 times with PBS and incubated in freshly prepared 0.05% DAB in 0.1 M Tris-HCl (pH 7.4) supplemented with 0.02% H2O2 for 10-20 min at room temperature. The conversion procedure was controlled under a light microscope. The reaction was stopped with PBS until brown precipitates were well visible inside the cells. To remove DAB, cover slips were rinsed several times in PBS. Optionally, nuclear staining was performed by incubating cover slips for 15 min in 2.5 μg/ml DAPI diluted in PBS. Cover slips were mounted with a water-soluble, non-fluorescing mounting medium (Aqua-Poly/Mount; Polysciences Inc., Eppelheim, Germany) under SuperFrost slides (VWR International). Prior to the analysis of the samples under a light microscope, mounting medium was dried for 24 hours at room temperature.
To provide direct evidence for 4-OH-tamoxifen-induced apoptosis in MEF5/N9 clones expressing Caspase-8 or -9 fusion proteins, an in situ application of the TUNEL assay was performed. This method detects DNA fragmentation, one of the late events that result from apoptotic signaling cascades. […]

MEF5/N9 cells [4] = assay: Transient cotransfection of ER(T2) fusion expression vectors with β-galactosidase reporter; β-galactosidase activity in lysates; settings: no 4-OH-tamoxifen; transient transfection 50 or 100 ng vector; relative to Cre-ER(T2) without 4-OH-tamoxifen

Molecule	cell viability in the presence of 4-OH-tamoxifen (MTT) (MEF5/N9 cells [1])	4-OH-tamoxifen-dependent cell death, phenotype of stable clones (MEF5/N9 cells [2])	4-OH-tamoxifen-dependent cell death, phenotype of stable clones (MEF5/N9 cells [2]; listed as CreER)	TUNEL result / apoptotic morphology (in words) (MEF5/N9 cells [3])	basal toxicity: relative β-galactosidase activity compared to the negative control in absence of 4-OH-tamoxifen (MEF5/N9 cells [4])	4-OH-tamoxifen-dependent cell death, phenotype of stable clones (MEF5/N9 cells [2]; listed as myrCasp8ER)	incubation time with 4-OH-tamoxifen at which TUNEL positive cells were detected (MEF5/N9 cells [3])	4-OH-tamoxifen-dependent cell death, phenotype of stable clones (MEF5/N9 cells [2]; listed as Casp8ER)
Cre-ER(T2): fusion of Cre recombinase to ER(T2) ligand binding domain, negative control, SEQ ID NO: 5 (protein, fusion protein Cre-ER(T2)) MSNLLTVHQNLPALPVDATSDEVRKNLMDMFRDRQAFSEHTWKMLLSVCRSWAAWCKLNNRKWFPAEPEDVRDYLLYLQARGLAVKTIQQHLGQLNMLHRRSGLPRPSDSNAVSLVMRRIRKENVDAGERAKQALAFERTDFDQVRSLMENSDRCQDIRNLAFLGIAYNTLLRIAEIARIRVKDISRTDGGRMLIHIGRTKTLVSTAGVEKALSLGVTKLVERWISVSGVADDPNNYLFCRVRKNGVAAPSATSQLSTRALEGIFEATHRLIYGAKDDSGQRYLAWSGHSARVGAARDMARAGVSIPEIMQAGGWTNVNIVMNYIRNLDSETGAMVRLLEDGDLEPSAGDMRAANLWPSPLMIKRSKKNSLALSLTADQMVSALLDAEPPILYSEYDPTRPFSEASMMGLLTNLADRELVHMINWAKRVPGFVDLTLHDQVHLLECAWLEILMIGLVWRSMEHPVKLLFAPNLLLDRNQGKCVEGMVEIFDMLLATSSRFRMMNLQGEEFVCLKSIILLNSGVYTFLSSTLKSLEEKDHIHRVLDKITDTLIHLMAKAGLTLQQQHQRLAQLLLILSHIRHMSNKGMEHLYSMKCKNVVPLYDLLLEAADAHRLHAPTSRGGASVEETDQSHLATAGSTSSHSLQKYYITGEAEGFPATA	not affected by treatment with 4-OH-tamoxifen	did not respond to 4-OH-tamoxifen	not affected by the treatment with 4-OH-tamoxifen	TUNEL negative at any point in time				
myrCasp8-ER(T2): murine Caspase-8 domain with N-terminal myristoylation motif fused to ER(T2) ligand binding domain, SEQ ID NO: 23 (protein, N-terminal myristoylation motif; fusion protein myrCasp8-ER(T2)) MGSSKSKPKDPSQRSESRTSDKVYQMKNKPRGYCLIINNHDFSKAREDITQLRKMKDRKGTDCDKEALSKTFKELHFEIVSYDDCTANEIHEILEGYQSADHKNKDCFICCILSHGDKGVVYGTDGKEASIYDLTSYFTGSKCPSLSGKPKIFFIQACQGSNFQKGVPDEAGFEQQNHTLEVDSSSHKNYIPDEADFLLGMATVKNCVSYRDPVNGTWYIQSLCQSLRERCPQGDDILSILTGVNYDVSNKDDRRNKGKQMPQPTFTLRKKLFFPPLEPSAGDMRAANLWPSPLMIKRSKKNSLALSLTADQMVSALLDAEPPILYSEYDPTRPFSEASMMGLLTNLADRELVHMINWAKRVPGFVDLTLHDQVHLLECAWLEILMIGLVWRSMEHPVKLLFAPNLLLDRNQGKCVEGMVEIFDMLLATSSRFRMMNLQGEEFVCLKSIILLNSGVYTFLSSTLKSLEEKDHIHRVLDKITDTLIHLMAKAGLTLQQQHQRLAQLLLILSHIRHMSNKGMEHLYSMKCKNVVPLYDLLLEAADAHRLHAPTSRGGASVEETDQSHLATAGSTSSHSLQKYYITGEAEGFPATA	9%	died in the presence of 4-OH-tamoxifen within 24 h		typical apoptotic morphology	6%	substantial cell death	3 h	
Casp8-ER(T2): fusion of murine Caspase-8 domain to the ER(T2) ligand binding domain, SEQ ID NO: 20 (protein, fusion protein Casp8-ER(T2)) MSESRTSDKVYQMKNKPRGYCLIINNHDFSKAREDITQLRKMKDRKGTDCDKEALSKTFKELHFEIVSYDDCTANEIHEILEGYQSADHKNKDCFICCILSHGDKGVVYGTDGKEASIYDLTSYFTGSKCPSLSGKPKIFFIQACQGSNFQKGVPDEAGFEQQNHTLEVDSSSHKNYIPDEADFLLGMATVKNCVSYRDPVNGTWYIQSLCQSLRERCPQGDDILSILTGVNYDVSNKDDRRNKGKQMPQPTFTLRKKLFFPPLEPSAGDMRAANLWPSPLMIKRSKKNSLALSLTADQMVSALLDAEPPILYSEYDPTRPFSEASMMGLLTNLADRELVHMINWAKRVPGFVDLTLHDQVHLLECAWLEILMIGLVWRSMEHPVKLLFAPNLLLDRNQGKCVEGMVEIFDMLLATSSRFRMMNLQGEEFVCLKSIILLNSGVYTFLSSTLKSLEEKDHIHRVLDKITDTLIHLMAKAGLTLQQQHQRLAQLLLILSHIRHMSNKGMEHLYSMKCKNVVPLYDLLLEAADAHRLHAPTSRGGASVEETDQSHLATAGSTSSHSLQKYYITGEAEGFPATA	31%	died in the presence of 4-OH-tamoxifen within 24 h		typical apoptotic morphology	17%		7 h	substantial cell death
